Assay [1] concerns the target T1, IL-18 receptor (IL-18R) on HEK-Blue IL-18 reporter cells (UniProt Q13478 19-541; O95256 20-599, limits assumed).
T1 sequence (looked up) 1: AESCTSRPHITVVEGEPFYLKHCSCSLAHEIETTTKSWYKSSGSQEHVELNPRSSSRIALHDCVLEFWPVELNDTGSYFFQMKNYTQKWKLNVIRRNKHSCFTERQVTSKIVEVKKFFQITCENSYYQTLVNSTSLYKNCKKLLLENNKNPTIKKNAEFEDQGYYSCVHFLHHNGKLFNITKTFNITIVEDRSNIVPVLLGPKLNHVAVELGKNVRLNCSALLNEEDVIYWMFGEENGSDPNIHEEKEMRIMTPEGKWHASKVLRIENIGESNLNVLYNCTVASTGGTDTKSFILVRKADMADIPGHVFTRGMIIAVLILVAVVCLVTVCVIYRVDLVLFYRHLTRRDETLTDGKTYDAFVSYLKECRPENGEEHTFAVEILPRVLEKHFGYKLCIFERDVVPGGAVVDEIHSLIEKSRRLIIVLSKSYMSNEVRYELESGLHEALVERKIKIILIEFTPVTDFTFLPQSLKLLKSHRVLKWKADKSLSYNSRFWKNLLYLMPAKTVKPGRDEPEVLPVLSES
T1 sequence (looked up) 2: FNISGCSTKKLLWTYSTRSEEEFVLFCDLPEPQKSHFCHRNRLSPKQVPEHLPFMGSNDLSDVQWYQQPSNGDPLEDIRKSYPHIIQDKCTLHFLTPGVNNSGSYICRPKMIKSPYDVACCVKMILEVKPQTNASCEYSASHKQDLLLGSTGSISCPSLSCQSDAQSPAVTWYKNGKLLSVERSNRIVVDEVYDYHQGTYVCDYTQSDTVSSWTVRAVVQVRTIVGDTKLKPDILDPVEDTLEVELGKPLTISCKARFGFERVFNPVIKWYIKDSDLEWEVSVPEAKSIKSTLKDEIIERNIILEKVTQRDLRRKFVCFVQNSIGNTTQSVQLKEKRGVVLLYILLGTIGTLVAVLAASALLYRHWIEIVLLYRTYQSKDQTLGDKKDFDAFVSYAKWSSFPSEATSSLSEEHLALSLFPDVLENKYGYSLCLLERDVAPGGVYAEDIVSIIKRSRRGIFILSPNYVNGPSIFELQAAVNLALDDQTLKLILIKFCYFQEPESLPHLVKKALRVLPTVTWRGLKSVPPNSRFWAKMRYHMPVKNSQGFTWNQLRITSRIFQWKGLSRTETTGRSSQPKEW
The assay is described as follows: cell-based or functional assay.

In assay [2] the target is T2, human IL-18BP (amino acids 31-194) (human, UniProt O95998 31-194, biotinylated on the AviTag (BirA ligase) where immobilized or used for staining).
T2 construct: Secreted decoy receptor; made in insect cells (gp67 signal peptide); also called hIL-18BP
T2 sequence: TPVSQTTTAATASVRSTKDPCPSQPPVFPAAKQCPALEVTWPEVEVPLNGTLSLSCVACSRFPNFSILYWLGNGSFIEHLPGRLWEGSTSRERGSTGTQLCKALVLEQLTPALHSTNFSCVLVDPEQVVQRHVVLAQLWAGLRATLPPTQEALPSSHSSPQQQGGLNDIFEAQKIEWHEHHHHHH
The assay is described as follows: on-yeast isotherms; KD IL-18BP / KD IL-18Rα; on-yeast isotherms; ratio of two KDs.

The target of assay [3] is T2, human IL-18BP (amino acids 31-194). The assay is described as follows: SPR; KD BP / KD Ra normalized to WT IL-18. In general terms: SPR reads the build-up and loss of mass on a sensor chip optically.
The target is the same in assay [4]. The assay is described as follows: SPR; KD IL-18BP / KD IL-18Rα; SPR; ratio of two KDs. As to the method:
(§1) Experiments were conducted using a Biacore™ T100 (Protein analysis interaction system) and carried out at 25° C. Biotinylated IL-18Rα or TL-18BP were immobilized onto a Biacore™ biotin capture chip (Series S CAP sensor chip, GE Healthcare) to yield an Rmax of ˜50 RU (IL-18Rα) or ˜10 RU (IL-18BP). Measurements were made with serial dilutions of the IL-18 variants in HEPES buffered Saline-P+ buffer (10 mM HEPES pH 7.4, 150 mM NaCl, 0.005% surfactant P20). The surface was regenerated by three 60-see injections of regeneration buffer (3/4 (v/v) 8M guanidine hydrochloride with 1/4 (v/v) 1M sodium hydroxide). Experiments were performed in multiple channels simultaneously for increased observations. All data were analyzed with the Biacore™ T100 evaluation software version 2.0 with a 1:1 Langmuir binding model.
(§2) To additionally characterize the receptor binding activities of the DR-IL-18 variants, the cytokines were expressed recombinantly and surface plasmon resonance for IL-18Rα and IL-18BP was performed (see FIG. 5B for representative traces).

The target is the same in assay [5]. The assay is described as follows: on-yeast isotherms; KD IL-18BP / KD IL-18Rα (20 µM used for NBD).
Assay [6] addresses T3, human IL-18Rα ectodomain (amino acids 19-329) (human, UniProt Q13478 19-329, biotinylated on the AviTag (BirA ligase)).
T3 construct: range 19-329; Secreted from insect cells (gp67 signal peptide); also called hIL-18Rα; hIL-18Ra
T3 sequence: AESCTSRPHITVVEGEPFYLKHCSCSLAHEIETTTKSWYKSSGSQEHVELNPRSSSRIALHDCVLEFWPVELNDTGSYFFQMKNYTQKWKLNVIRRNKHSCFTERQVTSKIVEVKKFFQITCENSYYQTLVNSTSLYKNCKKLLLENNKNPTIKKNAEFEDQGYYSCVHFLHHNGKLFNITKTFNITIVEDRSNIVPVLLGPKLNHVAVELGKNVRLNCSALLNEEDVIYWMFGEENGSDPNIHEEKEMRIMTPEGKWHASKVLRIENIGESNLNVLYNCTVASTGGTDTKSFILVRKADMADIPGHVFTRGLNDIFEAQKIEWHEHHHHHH
The assay is described as follows: on-yeast binding isotherm, flow cytometry. As to the method: (§3) Individual colonies of IL-18 yeast were grown overnight at 30° C. in SDCAA liquid media and induced in SGCAA liquid media for 1 day at 20° C. IL-18 display levels on yeast were verified by flow cytometry using an anti-cMyc tag antibody (anti-myc-PE; Cell Signaling Technologies). Receptor staining with biotinylated IL-18Rα (with or without IL-18Rβ) or biotinylated IL-18BP was performed in PBS supplemented with 0.5% BSA and 2 mM EDTA (PBE) on ice. All analysis was performed on a Sony SA3800 flow cytometer.
as §2
On the technique in general: In flow cytometry, cells or beads pass a laser one at a time.

Assay [7] concerns the target T2, human IL-18BP (amino acids 31-194). The assay is described as follows: on-yeast isotherms; KD IL-18BP / KD IL-18Rα (20 µM used for NBD); on-yeast isotherms; 20 µM put in for NBD. As to the method: as §3, §2
Assay [8] has as its target T4, mouse IL-18BP (amino acids 31-194) (mouse, UniProt Q9Z0M9 29-193, biotinylated on the AviTag (BirA ligase)).
T4 construct: Secreted decoy receptor; made in Expi293 cells (H7 signal peptide); the stated range is the same as for the human protein; also called mIL-18BP
T4 sequence: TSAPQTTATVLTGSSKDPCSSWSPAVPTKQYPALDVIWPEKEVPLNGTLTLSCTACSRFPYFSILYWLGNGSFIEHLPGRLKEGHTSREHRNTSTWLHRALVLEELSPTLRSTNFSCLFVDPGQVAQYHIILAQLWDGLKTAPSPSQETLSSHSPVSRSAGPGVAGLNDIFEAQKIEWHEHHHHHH
The assay is described as follows: SPR; KD BP / KD Ra normalized to WT IL-18; upper end tied to mA7 by Table 9.

For assay [9], the target named is T4, mouse IL-18BP (amino acids 31-194). The assay is described as follows: SPR; KD IL-18BP / KD IL-18Rα; SPR; ratio of two KDs. As to the method:
By contrast, very little binding is observed with the same variants and mIL-18BP (right). (FIG. 11B) Representative surface plasmon resonance sensorgrams between immobilized biotinylated mIL-18BP and the murine DR-IL-18 variants.
as §1

In assay [10] the target is T5, mouse IL-18Rα ectodomain (amino acids 19-329) (mouse, UniProt Q61098 19-329, biotinylated on the AviTag (BirA ligase)).
T5 construct: range 19-329; Secreted from Expi293 cells (H7 signal peptide); also called mIL-18Rα; Ra
T5 sequence: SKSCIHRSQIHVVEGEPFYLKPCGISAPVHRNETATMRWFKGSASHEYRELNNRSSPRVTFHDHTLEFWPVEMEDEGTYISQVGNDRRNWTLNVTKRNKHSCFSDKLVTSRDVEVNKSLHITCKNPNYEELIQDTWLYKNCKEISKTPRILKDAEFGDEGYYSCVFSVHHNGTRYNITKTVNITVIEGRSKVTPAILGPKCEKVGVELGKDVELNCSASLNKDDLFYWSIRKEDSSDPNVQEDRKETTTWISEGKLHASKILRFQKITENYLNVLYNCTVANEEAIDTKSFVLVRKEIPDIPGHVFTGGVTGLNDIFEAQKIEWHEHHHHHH
The assay is described as follows: flow cytometry, mIL-18Rα titrated on yeast-displayed murine IL-18 variant (binding isotherm, %Max).

Assay [11] deals with T4, mouse IL-18BP (amino acids 31-194). The assay is described as follows: on-yeast isotherms; KD IL-18BP / KD IL-18Rα (10 µM used for NBD); on-yeast isotherms; 10 µM put in for NBD.
For assay [12] the target is unchanged. The assay is described as follows: SPR; KD BP / KD Ra normalized to WT IL-18.

Experimental findings from patent publication US20250057918A1 (YALE UNIVERSITY, published 2025) are described below.

B1: hCS1 (ligand)
chain: YFGKLESKLSVIRNLNDQVLFIDQGNRPLFEDMTDSDCRDNAPRTIFIISTYKDSQPRGKAVTISVKCEKISTLSCENKIISFKEMNPPDNIKDTKSDIIFFQRDVPGHKHKMQFESSSYEGYFLACEKERDLFKLILKKEDELGDRSIMFTVQNED
notes: recombinant with C-terminal hexahistidine tag in SPR and cell assays
For B1, the “EC50 (read off the curve); HEK-Blue IL-18 SEAP reporter, OD 655 nM” value in [1] is around 4 nM. For the same molecule, the “KD ratio: IL-18BP/IL-18Rα” value in [2] is 300; in [4] it was 2.41. Further, the “IL-18 BP:Ra Dissociation Constant Ratio” value in assay [3] stood at 3020.

B2: hCS2 (ligand)
chain: YFGKLESKLSVIRNLNDQVLFIDQGNRPLFEDMTDSDCRDNAPRTIFIISTYKDKQPRAKAVTISVKCEKISTLSCENKIISFKEMNPPDNIKDTKSDIIFFQRDVPGHKHKMQFESSSYEGYFLACEKERDLFKLILKKEDELGDRSIMFTIQNED
notes: recombinant with C-terminal hexahistidine tag in SPR
As to B2, the “KD ratio: IL-18BP/IL-18Rα” value in assay [5] is above 219. The molecule further showed a dissociation constant Kd in assay [6] of 91.5 nM.

B3: hCS4 (ligand)
chain: RFGKLESKLSVIRNLNDQVLFIDQGNRPLFEDMTDSDCRDNAPRTIFIISTYRDSQPRGKAVTISVKCEKISTLSCENKIISFKEMNPPDNIKDTKSDIIFFQRNVPGHKYKMQFESSSYEGYFLACEKERDLFKLILKKEDELGDRSIMFTVQNED
notes: as for B1
Regarding B3, the “KD ratio: IL-18BP/IL-18Rα” value in assay [7] was above 125; in [4], 41.8. The “IL-18 BP:Ra Dissociation Constant Ratio” value in assay [3] stood at 32200.

B4: mA7 (ligand)
chain: YFGRLHCTTAVIRNINDQVLFVDKRQPVFEDMTDIDQSASEPQTRLIIYAYGDNRVRGKAVTLSVKDSKMSTLSCKNKIISFEEMDPPENIDDIQSDLIFFQKRVPGHNKMEFESSLYEGHFLACQKEDDAFKLILKKKDENGDKSVMFTLTNLHQS
notes: as for B2
As to B4, the “IL-18 BP:Ra Dissociation Constant Ratio” value in assay [8] is 3.5e+07. Further, the “KD ratio: IL-18BP/IL-18Rα” value in [9] is 63200; in [11], above 741. The “EC50 (read off the curve)” value in assay [10] was around 10 nM.

B5: mCS2 (ligand)
chain: HFGRLHCTTAVIRNINDQVLFVDKRQPVFEDMTDIDQSASEPQTRLIIYAYGDSRARGKAVTLSVKDSKMSTLSCKNKIISFEEMDPPENIDDIQSDLIFFQKRVPGHNKMEFESSLYEGHFLACQKEDDAFKLILKKKDENGDKSVMFTLTNLHQS
notes: recombinant with C-terminal hexahistidine tag in SPR; also called DR-IL-18 (mCS2); DR-18 variant mCS2
Regarding B5, the results for the “KD ratio: IL-18BP/IL-18Rα” value in assay [9] and in assay [11] were 133000 and above 885, respectively. The “EC50 (read off the curve)” value in [10] was around 10 nM. Besides, the “IL-18 BP:Ra Dissociation Constant Ratio” value in assay [12] was above 7.5e+07.

For orientation: Kd means the constant that tells how readily two partners part at equilibrium. Usually EC50 (read off the curve) stands for the concentration giving half of the maximal effect. A low value points to an effect from little substance.
